From the RNAGym collection of RNA variant scans (doi:10.1073/pnas.2313332121)
Fewer inactive variants are shown than the library holds.

B1: TPR 5TU (parent)
chain: GGAUCUUCUCGAUCUAACAAAAAAGACAAAUCUGCCACAAAGCUUGAGAGCAUCUUCGGAUGCAGAGGCGGCAGCCUUCGGUGGCGCGAUAGCGCCAACGUUCUCAACUAUGACACGCAAAACGCGUGCUCCGUUGAAUGGAGUUUAUCAUG

Variants of: B1
Test: polymerase ribozyme fitness, log enrichment relative to wild type (log ratio); higher = more active; in vitro selection for triplet polymerase activity
Outline: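 Mutant libraries of each subunit of a heterodimeric triplet polymerase ribozyme were built by PCR and transcribed. Each library went through one round of in vitro selection in triplicate: annealing with biotinylated primer, partner subunit and triplets, frozen incubation at −7 °C, gel excision of extended constructs, streptavidin-bead capture and RT-PCR. Input and output libraries were Illumina-sequenced; only genotypes with ≥10 input reads and ≥1 read per output were kept. Fitness is log2(genotype enrichment/wild-type enrichment), using inverse-variance-weighted replicate averages.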

First: GGAUCUUCUCGAUCUAACAAAAAAGACAAAUCUGCCACAAAGCUUGAGAGCAUCUUCGGAUGCAGAGGCGGCAGCCUUCGGUGGUGCGAUAGCGCCAACGUUCUCAACUAUGACACGCGAAACGCGUGCUCCGUUGAAUGGAGUUUAUCAUG [C85U A119G]
Second: GGAUCUUCUCGAUCUAACAAAAAAGACAAAUCUGCCACAAAGCUUGAGAGCAUCUUCGGAUGCAGAGGCGGCAGCCUUCGGUGGUGCGAUAGCGCCAACGUUCUCAACUAUGACACGCCAAACGCGUGCUCCGUUGAAUGGAGUUUAUCAUG [C85U A119C]
The “polymerase ribozyme fitness (log ratio)” value of the first is lower: -1.31 for the first, -0.984 for the second.

Compared with GGAUCUUCUCGAUCUAACAAAAAAGACAAAUCUGCCACAAAGCUUGAGAGCAUCUUCGGAUGCAGAGGCGGCAGCCUUCGGUGGGGCGAUAGCGCCAACGUUCUCAACUAUGACACACAAAACGCGUGCUCCGUUGAAUGGAGUUUAUCAUG [C85G G117A], GGAUCUUCUCGAUCUAACAAAAAAGACAAAUCUGCCACAAAGCUUGAGAGCAUCUUCGGAUGCAGAGGCGGCAGCCUUCGGUGGUGCGAUAGCGCCAACGUUCUGAACUAUGACACGCAAAACGCGUGCUCCGUUGAAUGGUGUUUAUCAUG [C85U C105G A142U] is higher in “polymerase ribozyme fitness (log ratio)” value: -2.7 for the first, -2.01 for the second.

Going from GGAUCUUCUCGAUCUAACAAAAAAGACAAAUCUGCCACAAAGCUUGAGAGCAUCUUCGGAUGCAGAGGCGGCAGCCUUCGGUGGGGCGAUAGCGCCAACGUACUCAACUAUGACACGCAAAACGCGUGCUCCUUUGUAUGCAGUUUAUCAUG [C85G U102A G133U A137U G141C] to GGAUCUUCUCGAUCUAACAAAAAAGACAAAUCUGCCACAAAGCUUGAGAGCAUCUUCGGAUGCAGAGGCGGCAGCCUUCGGUGGGGCGAUAGCGCCAACGUUCUCAACUAUGACACGCAAAACGCGUGCUCCGUUGAAUGGAGUAUAUCAUG [C85G U145A], the “polymerase ribozyme fitness (log ratio)” value rises from -3.8 to -1.65.

Going from GGAUCUUCUCGAUCUAACAAAAAAGACAAAUCUGCCACAAAGCUUGAGAGCAUCUUCGGAUGCAGAGGCGGCAGCCUUCGGUGGGGCGAUAGCGCCAACGUUCUCAACUAUGACACGCAAAACGCGUGCUCCGUUGAAUGGAGUCUAUCAUG [C85G U145C] to GGAUCUUCUCGAUCUAACAAAAAAGACAAAUCUGCCACAAAGCUUGAGAGCAUCUUCGGAUGCAGAGGCGGCAGCCUUCGGUGGUGCGAUAGCGCCAACGUUCUCAUCUAUGACACGCAAAACGCGUGCUCCGUUGAGUGGGGUUUAUCAUG [C85U A107U A138G A142G], the “polymerase ribozyme fitness (log ratio)” value falls from -2.42 to no more than -4.2.

Compared with GGAUCUUCUCGAUCUAACAAAAAAGACAAAUCUGCCACAAAGCUUGAGAGCAUCUUCGGAUGCAGAGGCGGCAGCCUUCGGUGGGGCGAUAGCGCCAACGUUCUCAACUAUGACACGCAAAACGCGUGCUCCGUUGAAUGGAGUUUAUCACG [C85G U151C], GGAUCUUCUCGAUCUAACAAAAAAGACAAAUCUGCCACAAAGCUUGAGAGCAUCUUCGGAUGCAGAGGCGGCAGCCUUCGGUGGUGCGAUAGCGCCAACGUUCUCAACUAUGACACGCAGAACGCGUGCUCCGUUGAAUGGAGUUUAUCCUG [C85U A120G A150C] is higher in “polymerase ribozyme fitness (log ratio)” value: -4.2 for the first, -3.75 for the second.

Going from GGAUCUUCUCGAUCUAACAAAAAAGACAAAUCUGCCACAAAGCUUGAGAGCAUCUUCGGAUGCAGAGGCGGCAGCCUUCGGUGGUGCGAUAGCGCCAACGUUCUCAACUAUGACACGCUAAACGCGUGCUCCGUUGACUGGAGUAUAUCAUG [C85U A119U A138C U145A] to GGAUCUUCUCGAUCUAACAAAAAAGACAAAUCUGCCACAAAGCUUGAGAGCAUCUUCGGAUGCAGAGGCGGCAGCCUUCGGUGGUGCGAUAGCGCCUACGUUCUCAACUAUGACACGCAAAACGCGUGCUCCGUUGAAUGGAGUUUAUCAUG [C85U A97U], the “polymerase ribozyme fitness (log ratio)” value rises from -3.86 to -2.44.

Going from GGAUCUUCUCGAUCUAACAAAAAAGACAAAUCUGCCACAAAGCUUGAGAGCAUCUUCGGAUGCAGAGGCGGCAGCCUUCGGUGGGGCGAUAGCGCCAACGUUCUCAACUAUGACACGCAAAACGCGUGCUCCGUUGAAUGGAGAUUAUUAUG [C85G U144A C149U] to GGAUCUUCUCGAUCUAACAAAAAAGACAAAUCUGCCACAAAGCUUGAGAGCAUCUUCGGAUGCAGAGGCGGCAGCCUUCGGUGGUGCGAUAGUGCCAACGUUCUCAACUAUGACACGCAAAACGCGUGCUCCGUUGAAUGGAGUUUAUCAUG [C85U C93U], the “polymerase ribozyme fitness (log ratio)” value rises from -3.7 to -1.93.

Compared with GGAUCUUCUCGAUCUAACAAAAAAGACAAAUCUGCCACAAAGCUUGAGAGCAUCUUCGGAUGCAGAGGCGGCAGCCUUCGGUGGUGCGAUAGAGCCAACGUUCUCAACUAUGACACGCAAAACGCGUGCUCCGUUGAAUGGAGUUUAUCAUG [C85U C93A], GGAUCUUCUCGAUCUAACAAAAAAGACAAAUCUGCCACAAAGCUUGAGAGCAUCUUCGGAUGCAGAGGCGGCAGCCUUCGGUGGUGCGAUAGCGCCAACGUUCUCUACUAUGCCUCGCAAAACGCGUGCUCCGUUGAAUGGAGUUUAUCAUG [C85U A106U A113C A115U] is lower in “polymerase ribozyme fitness (log ratio)” value: -2.72 for the first, no more than -4.2 for the second.

Going from GGAUCUUCUCGAUCUAACAAAAAAGACAAAUCUGCCACAAAGCUUGAGAGCAUCUUCGGAUGCAGAGGCGGCAGCCUUCGGUGGUGCGAUAGCGCCAACGUUCUCAACUAUGACACGCCAAACGCGUGCUGCGUUGAAUGCAGUUUAUCAUG [C85U A119C C131G G141C] to GGAUCUUCUCGAUCUAACAAAAAAGACAAAUCUGCCACAAAGCUUGAGAGCAUCUUCGGAUGCAGAGGCGGCAGCCUUCGGUGGUGCGAUAGCGCCCACGUUCUCAACUAUGACACGCAAAACUCGUGCUCCGUUGAAUGGAGUUUAUCAUG [C85U A97C G124U], the “polymerase ribozyme fitness (log ratio)” value rises from -0.0963 to 0.338.

With GGAUCUUCUCGAUCUAACAAAAAAGACAAAUCUGCCACAAAGCUUGAGAGCAUCUUCGGAUGCAGAGGCGGCAGCCUUCGGUGGUGCGAUAGCGCCAACGUUCUCACCUAUGACACGCAAAACGCGUGCUUCGUUGAAUGGAGUUUAUCAUG [C85U A107C C131U] the “polymerase ribozyme fitness (log ratio)” value was -4.07.
